Test results from the nanobody polyreactivity screen of Harvey et al. (2022).

Assay: yeast display, Sf9 membrane polyspecificity reagent, FACS + sequencing; frameworks hold sequencing errors
Summary of the method: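 Using colony PCR, genes from sorted yeast display clones were amplified, then sequenced on MiSeq at 2 × 250 and filtered by CDR length. The clones had been stained with 10% biotinylated, detergent-solubilized Sf9 membrane reagent for 1 hour at 4 °C and sorted by FACS into low and high (top ~1%) gates on anti-HA and streptavidin fluorescence. Polyreactivity labels come from the gate of origin.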

QVQLEESGGGLVQAGGSLRLSCAASGRIFSPNVRGWYRKATGKERELVAGITSSGGSTYYADSVKGRLTISRDNAKNTVYLQMNSLKPEYTAVYYCAAPWVGTFVSGRGYYWGQGTQVTVSS
polyreactivity (PSR sort gate): low polyreactivity

QVQLEESGGGLVQAGGSLRLSCAASGRIFTRYALGWYRQAPGKERELVAAITGSGGSTYYADSVKGRFTISRDNAKNTVYLQMNSRKPEDTAVYYCATDFYCYRSYNYWGQGTQVTVSS
polyreactivity (PSR sort gate): high polyreactivity

QVQLEESGGGLVQAGGSLRLSCAASGRILAKYAMGWYRPAPRKEREFVDAISYSGGSTYYADSVKGRFTISRDNAKNNVYLLMNRLKPEYTAVYYCAASSYVLYRTRKMYFWGQGTQVTVSS
polyreactivity (PSR sort gate): high polyreactivity

QVQLEESGGGLVQAGGSLRLSCAASGRTFFPYAMGWYRQAPGKERELVAAISHGGRTYYADSVKGRFTISRDNAKNTVYLQMNSLKPEDTAVYYCNALSARSYYWGQGTQVTVSS
polyreactivity (PSR sort gate): high polyreactivity

QVQLEESGGGLVQAGGSLRLSCAASGRTFGLYAMGWYRQAPGKERELVAAITRSDGGTNYADSVKGRFTISRDNAKNTVYVQMNSLKPEDTSVYYCAVDLGYVSDVSWYAYEYWGQGTQVTVSS
polyreactivity (PSR sort gate): low polyreactivity

QVQLEESGGGLVQAGGSLRLSCAASGRTFGSNAMGWYRQAPGKERELVAAIRERGGSTYADSVKGRFTISRDNAKNTVYLQMNSLKPEDTAVYYCAADRSVIWSKNYDYWGQGTQVTVSS
polyreactivity (PSR sort gate): low polyreactivity

QVQLEESGGGLVQAGGSLRLSCAASGRTFGTNAMGWYRQAPGKERELVAAITTNGGRTYYADSVKGRFTISRDNAKNTVYLQMNSLKPEDTAVYYCAKYYQTDTYIYDYWGQGTQVTVSS
polyreactivity (PSR sort gate): low polyreactivity

QVQLEESGGGLVQAGGSLRLSCAASGRTFGYYAMGWYRQAPGKERELVAAISTRSGSTYYADSVKGRFTISRDNAKNTVYLQMISLKPEDTAVYYCAADSYPDYDYWGQGTQVTVSS
polyreactivity (PSR sort gate): low polyreactivity

QVQLEESGGGLVQAGGSLRLSCAASGRTFIYYAMGWYRQATGKEREFVAAITKSGGTTYYADSVKGRFTISRHNAKNTVYLQMNSLKPEDTAVYYCAKTTRRGFALYDYWGQGTQVTVSS
polyreactivity (PSR sort gate): high polyreactivity

QVQLEESGGGLVQAGGSLRLSCAASGRTFRLNVMGWYREAPGKQRELVAAISTRGGDTYYADSVKGRFTISLDNAKNTDYLQMNSLKPEDTALYYCAAEYTYVYDYWGQGTQVTLSS
polyreactivity (PSR sort gate): high polyreactivity

QVQLEESGGGLVQAGGSLRLSCAASGRTFRRNAMGWYRQAPGKERELVADISNGDSTKYADSVKGRFTISRDNAKNTVYLQMHSLIPEDTAVYYCNAQRYRVVVYISHGWQTRNYWGQGTQVTVSS
polyreactivity (PSR sort gate): low polyreactivity

QVQLEESGGGLVQAGGSLRLSCAASGRTFWLYAMGRYRQAPGKEREFVASISSSGDSTYYADSVKGRFTISRDNAKNTVYLQMNSLKPEDTAVYDCAARPSRRYLRNGLDYWGQGTQVTVSS
polyreactivity (PSR sort gate): high polyreactivity

QVQLEESGGGLVQAGGSLRLSCAASGRTFYYNAMGSSRQAPGKERELVAGITYRGGSTYYADSVKGRFTISRDNAKNTVYLQMNSLKPEDTAVYYCAVKYSWLSRFNYWGLGTQVTVSS
polyreactivity (PSR sort gate): high polyreactivity

QVQLEESGGGLVQAGGSLRLSCAASGRTLDYYAMGWYRQAPGKERELVASITSGGSTNYADSVKGRFTISRDNAKNTVYLQMNSLKPEDTAVYYCAADSAFYRDVKSNYWGQGTQVTVSS
polyreactivity (PSR sort gate): low polyreactivity

QVQLEESGGGLVQAGGSLRLSCAASGRTLRVNAIGWYRQAPGKERELVAANSSGGRTNYADSVKGRFTISRDNAKNTVYLQMNSLKPEDTAVYYCAVDRPRFPSRPPYHKYDYWGQGTQVTVSS
polyreactivity (PSR sort gate): low polyreactivity

QVQLEESGGGLVQAGGSLRLSCAASGSIFDLNAMGWYRQAPGKERELVAANSSGGGTYYADSVKGRFTISRDNAKNTVYLQMNSLKPEDTAVYYCAAVGYKGYGYDYWGQGTQVTVSS
polyreactivity (PSR sort gate): high polyreactivity

QVQLEESGGGLVQAGGSLRLSCAASGSIFDSYAMGWYRAAPGKERELVATINTSGGSTYYADSVKGRFTIHDNAKNTVYLQMNSLKPEDTAVYYCNAGRWVYWQNNFGDYGYWGQGTQVTVSS
polyreactivity (PSR sort gate): low polyreactivity
